For assay [1], the target named is T1, soluble human TNFR2 (human, UniProt P20333 23-257).
T1 construct: also called soluble TNFR2
T1 sequence (looked up): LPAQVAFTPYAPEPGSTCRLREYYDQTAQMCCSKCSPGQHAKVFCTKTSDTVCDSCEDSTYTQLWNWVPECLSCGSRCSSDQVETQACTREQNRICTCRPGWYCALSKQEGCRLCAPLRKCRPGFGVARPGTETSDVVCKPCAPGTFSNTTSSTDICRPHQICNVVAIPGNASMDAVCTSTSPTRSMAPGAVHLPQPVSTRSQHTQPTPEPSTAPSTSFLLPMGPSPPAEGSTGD
As to the kind of experiment: competition ELISA, plate-bound soluble human TNFR2, biotinylated TNFα as competitor. The protocol:
(§1) Soluble human TNFR2 (Sino Biological, 10417-H08H) or cynomolgus TNFR2 (Sino Biological, 90102-C08H) was coated on Nunc-Immuno™ plates at 0.1 μg/ml, 0.5 ug/ml, 1 μg/ml, and 5 μg/ml. […] Plates were developed using TMB and stopped with 3 M HCl.
(§2) IC₅₀ values are reported in nM.

Assay [2] has as its target T2, cynomolgus TNFR2 on cells (cynomolgus).
T2 construct: whole, on cells; also called cynomolgus TNFR2 on CD4+ and CD8+ T cells
Nature of the assay: flow cytometry on cynomolgus PBMC, antibody at 10 ug/mL, anti-human Fc-PE secondary. How it is done: Cynomolgus peripheral blood mononuclear cells (PBMCs) from two independent donors were isolated by diluting whole blood (SNBL USA) 1:1 in PBS (Lonza), layering over Ficoll-Paque Plus (GE Healthcare), and centrifuging for 35 minutes at 400×g. The PBMC fraction was removed, washed 3 times in 2% FBS PBS and counted. 0.3×10⁶ PBMC were resuspended in Fixable Viability Stain 575V (BD) diluted 1:1000 in PBS and incubated for 10 minutes. PBMC were then washed twice in PBS to remove residual viability stain, resuspended in Horizon Brilliant Stain Buffer (BD) with 10 uL per test of human Fc receptor binding inhibitor (eBioscience), and incubated on ice for 20 minutes to block Fc receptors. […] PBMC were incubated 20 minutes on ice and then washed three times with 2% FBS PBS. To visualize TNFR2 chimeric antibody binding, PBMC were resuspended in goat anti-human Fc-PE F(ab′)₂ secondary reagent (Jackson ImmunoResearch) diluted 1:200 in 2% FBS PBS and incubated on ice for 20 minutes. Cells were then washed three times in 2% FBS PBS and resuspended in 200 uL 2% FBS PBS for flow cytometry analysis using a BD FACS Celesta instrument and FACS Diva software. T cells were analyzed for chimeric TNFR2 binding by gating on viable cells defined as lymphocytes using forward and side scatter and as T cells by anti-CD3 staining. CD4⁺ and CD8⁺ subsets were identified using commercial specific antibody conjugates.

In assay [3] the target is T3, soluble cynomolgus TNFR2 (cynomolgus, UniProt A0A2K5VET2 132-366).
T3 sequence: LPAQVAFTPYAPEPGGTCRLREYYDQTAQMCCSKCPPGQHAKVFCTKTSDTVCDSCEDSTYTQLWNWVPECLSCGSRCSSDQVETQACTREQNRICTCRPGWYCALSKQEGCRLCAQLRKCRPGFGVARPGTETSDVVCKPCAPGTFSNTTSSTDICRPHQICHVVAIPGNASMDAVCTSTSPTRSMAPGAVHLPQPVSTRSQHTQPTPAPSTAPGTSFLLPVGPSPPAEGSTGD
As to the kind of experiment: competition ELISA, plate-bound soluble cynomolgus TNFR2, biotinylated TNFα as competitor. The protocol:
as §1, §2

Assay [4] addresses T4, monomeric human TNFR2 extracellular domain (human, UniProt P20333 23-257).
T4 construct: extracellular domain; Analyte in the Octet experiments; also called human TNFR2 ECD
T4 sequence (looked up): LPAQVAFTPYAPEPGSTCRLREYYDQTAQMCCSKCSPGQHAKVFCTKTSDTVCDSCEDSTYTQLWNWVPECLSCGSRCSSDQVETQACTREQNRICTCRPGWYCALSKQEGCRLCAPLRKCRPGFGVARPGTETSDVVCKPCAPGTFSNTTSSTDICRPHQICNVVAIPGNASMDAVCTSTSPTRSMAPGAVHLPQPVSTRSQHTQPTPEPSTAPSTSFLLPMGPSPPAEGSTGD
As to the kind of experiment: BLI (Octet Red 96), antibody captured on Fc biosensor, monomeric TNFR2 ECD in solution, 1:1 model.

Assay [5] concerns the target T5, monomeric cynomolgus TNFR2 extracellular domain (cynomolgus monkey, UniProt A0A2K5VET2 132-366).
T5 construct: extracellular domain; Analyte in the Octet experiments; also called cynomolgus TNFR2 ECD; Cyno TNFR2
T5 sequence: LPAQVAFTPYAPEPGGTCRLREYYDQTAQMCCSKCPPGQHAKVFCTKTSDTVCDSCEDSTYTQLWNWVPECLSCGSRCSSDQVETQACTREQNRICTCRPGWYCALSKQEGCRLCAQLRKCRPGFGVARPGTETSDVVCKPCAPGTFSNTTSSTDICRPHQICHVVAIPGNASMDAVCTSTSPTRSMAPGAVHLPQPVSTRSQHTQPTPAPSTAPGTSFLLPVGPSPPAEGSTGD
The description is as above.

Assay [6] concerns the target T1, soluble human TNFR2. As to the kind of experiment: competition ELISA: plate-bound soluble human TNFR2, competitor biotinylated TNFα, streptavidin-HRP, A450. The protocol: as §1
On the technique in general: ELISA stands for enzyme-linked immunosorbent assay.

Assay [7] concerns the target T3, soluble cynomolgus TNFR2. As to the kind of experiment: competition ELISA: plate-bound soluble cynomolgus TNFR2, competitor biotinylated TNFα, streptavidin-HRP, A450. How it is done: as §1
Assay [8] deals with T1, soluble human TNFR2. Nature of the assay: competition ELISA: plate-bound soluble human TNFR2, competitor biotinylated TNFα; IC50 relative to unlabelled TNFα = 1.00. The protocol: as §1
For assay [9], the target named is T1, soluble human TNFR2. The assay is described as above. How it is done: as §1, §2
This is another data set of the same source.

The target in assay [10] is T3, soluble cynomolgus TNFR2. As to the kind of experiment: competition ELISA: plate-bound soluble cynomolgus TNFR2, competitor biotinylated TNFα; IC50 relative to unlabelled TNFα = 1.00. How it is done: as §1
Assay [11] deals with T3, soluble cynomolgus TNFR2. Described as above. The protocol:
as §1, §2
The source holds these as a separate data set.

We go through two molecules from US20190202925A1 (OPI VI IP HOLDCO, published 2019).

Where two headings read alike, the source gives them in different places.

Broadly, the Kd is a measure of binding affinity in units of concentration. A low value points to a tighter complex. For orientation: IC50 means the concentration at which inhibition is half-maximal. Higher therefore signals weaker potency.

B1: chimeric SBT-002 (antibody, V domains shown)
VH: QVTLKESGPGILQPSQTLSLTCSFSGFSLSTSGMGVGWIRQPSGKGLEWLAHIWWDDDKFYNPSLKSQLTISKDTSRNQVFLKLTSVVTADTATYYCARLTGTRYFDYWGQGTTLTVSS
VL: DVQMTQSPSSLSASLGGKVTITCKASQDINKFIAWYQHKPGKGPRLLIHYTSTLQPGIPSKFSGSGSGRDYSFSISNLEPEDIATYYCLQYGNLWTFGGGTKLEIT
notes: also called chSBT-002
Turning to B1, the “Average Relative IC50” value in assay [1] is 2.91 nM; in assay [3] it was 3.38. For the same molecule, the “% CD4^+ ab^+ Donor 1” value in [2] is 9%. In addition, in [2], the “% CD4^+ ab^+ Donor 2” value was 14.1%. In addition, the “% CD8^+ ab^+ Donor 1” value in assay [2] is 9.5%. Moreover, the “% CD8^+ ab^+ Donor 2” value in assay [2] was determined as 29%. For the same molecule, the Kd in assay [4] amounted to 0.8 nM; in [5], 0.62 nM. Besides, the values for the IC50 in assay [6] and in [7] were 7.53 nM and 15.6 nM, respectively. Also, the “Relative IC50” value in assay [8] stood at 3.03 nM; in [9], 2.98 nM; in assay [10] it was 4.16 nM; in assay [11], 2.87 nM.

B2: chimeric SBT-004 (antibody, V domains shown)
VH: EVQLQQSGPEVGRPGSSVKISCKASGYTFTDYIMHWVKQSPGQGLEWIGWVDPEYGSTDYAEKFKKKATLTADTSSNTAYIQLSSLTSEDTATYFCARDDGSYSPFDYWGQGVMVTVSS
VL: DIQMTQSPPSLSASLGDKVTITCQASQNINKYIAWYQQKPGKAPRLLIRYTSTLESGTPSRFSGSGSGRDYSFSISNVESEDIASYYCLQYVNLLTFGAGTKLEIK
notes: VH fused to a human IgG1 Fc domain; also called chSBT-004
As to B2, the figures for the “Average Relative IC50” value in assay [1] and in [3] were 5.07 nM and 3.64, respectively. Besides, the “% CD4^+ ab^+ Donor 1” value in assay [2] stood at 10.2%. In addition, in assay [2], the “% CD4^+ ab^+ Donor 2” value is 7.6%. Besides, the “% CD8^+ ab^+ Donor 1” value in [2] amounted to 11.2%. The “% CD8^+ ab^+ Donor 2” value in assay [2] was determined as 18.4%. Also, the Kd in assay [4] came to 3.6 nM; in assay [5] it was 3.4 nM. In addition, the IC50 in [6] and in assay [7] was 16.7 nM each time. Also, the “Relative IC50” value in [8] came out at 6.72 nM; in [9] it was 3.54 nM; in [10], 4.45 nM; in [11], 3.22 nM.
